From patent US8293494B2, “Tri-demethylation-capable protein complex, method of its preparation and its use” (Universitatsklinikum Freiburg, priority 2007, dated 2012)
Numbering of substitutions follows the chain as printed. Names and notes keep the numbering of the source.

B1: JMJD2C: Recombinantly expressed and purified His-tagged JMJD2C (aa 12-349), a JMJC domain-containing histone demethylase (protein, UniProt Q9H3R0 12-349, looked up, fragment)
chain: PSCKIMTFRPSMEEFREFNKYLAYMESKGAHRAGLAKVIPPKEWKPRQCYDDIDNLLIPAPIQQMVTGQSGLFTQYNIQKKAMTVKEFRQLANSGKYCTPRYLDYEDLERKYWKNLTFVAPIYGADINGSIYDEGVDEWNIARLNTVLDVVEEECGISIEGVNTPYLYFGMWKTTFAWHTEDMDLYSINYLHFGEPKSWYAIPPEHGKRLERLAQGFFPSSSQGCDAFLRHKMTLISPSVLKKYGIPFDKITQEAGEFMITFPYGYHAGFNHGFNCAESTNFATVRWIDYGKVAKLCTCRKDMVKISMDIFVRKFQPDRYQLWKQGKDIYTIDHTKPT
modifications: His-tag
notes: Recombinantly expressed and purified His-tagged JMJD2C (aa 12-349), a JMJC domain-containing histone demethylase
B2: JMJD2C H190A: enzymatically impaired mutant JMJD2C H190A (aa 12-349) (protein)
chain: B1 chain with H179A
modifications: left off: small tags and cut ends

Test system: H3K9 on core histones or nucleosomes from HeLa cells
Assay: In vitro demethylation assay
Type: biochemical
Details: 5 hours at 37° C., Western blot; for demethylation of trimethyl H3K9: core histones and nucleosomes from HeLa cells
Method: FIG. 2 JMJD2C interacts with chromatin and demethylates H3K9. LNCaP cells were incubated with or without the AR agonist R1881 (a, b), and transfected with stealth RNAi (b). ChIP or Re-ChIP was performed with the indicated antibodies. The precipitated chromatin was amplified by PCR using primers flanking the promoter region (ARE I+II) and the enhancer region (ARE III) of the PSA gene, the promoter region (ARE) of the KLK2 gene, or the promoters of the unrelated GAPDH and U6 genes. Western blot analysis (b, lower right panel) verified the specific siRNA-mediated knockdown of JMJD2C. c, Core histories or nucleosomes from HeLa cells were incubated with recombinant JMJD2C (aa 12-349) or mutant JMJD2C H190A (aa 12-349). Western blots were decorated with the indicated antibodies against α-mono-, α-di-, or α-trimethyl H3K9.
FIG. 6: The integrity of core histones and nucleosomes is maintained during the demethylation assay. Core histones or nucleosomes from HeLa cells were incubated with recombinant JMJD2C (aa 12-349) or mutant JMJD2C H190A (aa 12-349). Western blots were decorated with α-H3 antibody.
The demethylation assays were performed as described^4. His-tagged proteins were incubated for 5 hours at 37° C. in demethylation buffer containing 50 mM HEPES-KOH pH 8.0, 2 mM ascorbate, 100 μM Fe(NH4)2(SO4)2, 1 mM α-ketoglutarate with 1 μg of nucleosomes or core histones purified from HeLa cells^22. The reaction mixture was analysed by SDS-PAGE followed by Western blotting using antibodies as indicated.

Molecule	methylation status of mono- and dimethyl H3K9	demethylation of trimethyl H3K9
B1	not altered	very efficiently demethylates
B2		fails to demethylate
